Laboratory results as given in paper PMC6625990, “Structural underpinnings of Ric8A function as a G-protein α-subunit chaperone and guanine-nucleotide exchange factor” (Nature Communications, 2019).
Where a chain is given by its changes, count along the chain named. Numbers in names are those of the source. Where two headings read alike, the source gives them in different places.

Legend:
Gαi = test: GTPγS binding to Gαi (GDP/GTPγS exchange, GEF activity of Ric8A constructs); type: biochemical; details: for Rate of GDP/GTPγS exchange reaction on Gαi: same conditions
Experimental: The rates of GTPγS binding to Gαi in the absence or presence of Ric8A1–492 (Ric8A1–452) were measured by following the increase in fluorescence of Gαi tryptophan. Gαi (1 µM) was mixed with GDP (1 µM) in a fluorescence cuvette, in 20 mM Tris-HCl (pH 8.0) buffer containing 150 mM NaCl, 5% glycerol, 1 mM TCEP and 10 mM MgCl2, and incubated for 2 min. The binding reaction was initiated by addition of Ric8A1–492 or Ric8A1–452 (1 µM each) and/or and GTPγs (10 µM). Fluorescence at 340 nm was monitored with the excitation set at 295 nm. Data were fit to an equation for one phase association using the GraphPad Prism 7.05 software.

Gαt [1] = test: BLI: Ric8A1–492 and its mutants binding to full-length Avi-tagged Gαt; details: BLI steady state, source data
Experimental: (§1) An Octet RED96 system and streptavidin (SA)-coated biosensors (FortéBio, Menlo Park, CA) were used to measure association and dissociation kinetics for Gα peptides or the full-length Avi-tagged Gαt in relation to Ric8A1–492, Ric8A1–452, and Ric8A1–426. To obtain the Avi-tagged Gαt, Gαt was cloned into modified pET21a vector with the N-terminal His6-tag followed by the Avi tag and TEV cleavage site[59]. The Avi-tagged I340Q/N343H mutant of Gαt was prepared by QuikChange protocol. BL21(DE3) cells for expression of the Avi-tagged Gαt were grown in 2TY media supplemented with biotin (10 mg/liter), induced at OD600 of 0.6 with 50 µM IPTG and further grown overnight at 16 °C. Binding studies were performed in 20 mM Tris, 150 mM KCl, 5% glycerol, 1 mM TCEP, 0.5 mg/ml BSA, pH 8.0. All steps were performed at 26 °C, with biosensors stirred into 0.2 ml of sample in each well at 1000 rpm, and at a data acquisition rate of 5.0 Hz. N-terminally biotinylated Gαt333–350, Gαs363–380, C1 peptide and C2 peptide were loaded onto SA sensors at a concentration of 0.05, 0.05, 0.005, and 0.01 mg/ml for 40–90 seconds. Data for association and dissociation phases of the assay were collected as shown in Fig. 1b and Supplementary Figs. 8, 11, 12, and 14. To correct for baseline drift and non-specific binding, reference sensors lacking bound Gα peptide were used in the BLI assays with Ric8A proteins at the highest concentrations. Kinetic data fitting was performed using FortéBio Data Analysis software 10.0. For each concentration of Ric8A1–492, dissociation rate constant (kd) values were calculated from the corresponding dissociation phases of the curves. These kd values were used to calculate the association rate constant (ka) values from the association phases for each concentration according to the equation1 ka=kobserved-kd∕Ric8A1-492 The average ka and kd were calculated as means of the individual ka and kd values for all curves. Equilibrium dissociation constant KD was calculated as mean kd/mean ka. Steady-state data fitting was performed using the GraphPad Prism 7 software with the equation for one site specific binding.

Gαt333–350 = test: BLI: Ric8A1–492 and its mutants binding to biotinylated Gαt333–350; details: for Kd: BLI steady state, source data
Experimental: as §1

[2] = DSF thermostability of Ric8A constructs and Ric8A1–492 mutants (protein alone); type: physicochemical, bovine; details: DSF; for mean Tm / Tm (C ): protein alone, source data; for mean Tm: mean of replicates
Experimental: Stabilities of Ric8A constructs with and without peptide ligands were assessed using differential scanning fluorimetry (DSF), in which an increase in fluorescence of the Sypro Orange dye is measured. Ric8A1–492, Ric8A1–452 and Ric8A1–426 in 20 mM Tris-HCl (pH 7.5) buffer containing 150 mM KCl, 5% glycerol, and 1 mM TCEP with and without peptide were used at a final concentration of 0.5 mg/ml and were supplemented with a 1000-fold dilution of Sypro Orange dye (Invitrogen). Temperature was increased at 1 °C/minute and fluorescence signals were recorded using real-time PCR (C1000 Touch thermal cycler, Bio Rad), with the cycler set to FRET mode and the excitation wavelength set at 450–490 nm and the emission wavelength at 560–580 nm.

Gαt [3] = test: SEC co-migration of Ric8A1–492 R75M mutant with full-length Gαt; type: binding
Experimental: Ric8A1–492/miniGαi complex was prepared by mixing Ric8A with miniGαi at a 1:1.5 molar ratio. The complex was purified by SEC using a HiLoad 16/600 Superdex 200 pg column equilibrated with 20 mM Tris-HCl (pH 8.0) buffer containing 150 mM KCl, 5% glycerol, and 1 mM TCEP. This procedure removed excess miniGαi, ensuring 1:1 stoichiometry of the complex. Ric8A1–492/Gαt complexes were purified by mixing Ric8A1–492 with Gαt (1:1.5 molar ratio), followed by SEC using Superdex 200 10/300 GL column (GE healthcare) to remove excess Gαt. […]
with Gαt. (A) Ric8A1-492 was mixed with Gαt and loaded onto a MW-calibrated Superdex 200 10/300 column. SEC profile - black curve. Blue curve and a gel in the inset with a blue outline represent SEC profile of Ric8A1-492 alone. Red curve and a gel in the inset with a red outline represent SEC profile of Gαt alone. (B) Peak fractions in A analyzed by SDS-PAGE. Peak 1 containing the Ric8A1-492/Gαt complex is not fully resolved from peak 2 corresponding to Ric8A1-492 alone. (C) The R75M mutant of Ric8A1-492 was mixed with Gαt and loaded onto a MW-calibrated Superdex 200 16/600 column. SEC profile - black curve. Blue line and a gel in inset represent SEC profile of R75M alone. Red curve – SEC profile of Gαt alone. (D) Peak fractions in C analyzed by SDS-PAGE. […]

B1: Ric8A1–492: bovine Ric8A construct truncated at the C-terminus (residues 1–492) (protein)
chain: MEPRAVADALETGEEDVVMEALRAYNRENSQSFTFDDAQQEDRKRLAKLLVSVLEQGLPPSRRVIWLQSIRILSRDRSCLDSFTSRRSLQALACYAGISASQGSVPEPLNMDVVLESLKCLCNLVLSSPVAQALAAEAGLVVRLAERVGLCRQSSFPHDVQFFDLRLLFLLTALRTDVRQQLFQELQGVRLLTRALELTLGMTEGERHPELLPPQETERAMEILKVLFNITFDSIKREVDEEDAALYRHLGTLLRHCVMLAAAGDRTEELHGHAVNLLGNLPVKCLDVLLTLEPHEGSLEFLGVNMDVIRVLLSFMEKRLHQTHRLKESVAPVLSVLTECARMHRPARKFLKAQVLPPLRDVRTRPEVGELLRNKLVRLMTHLDTDVKRVAAEFLFVLCSESVPRFIKYTGYGNAAGLLAARGLMAGGRPEGQYSEDEDTDTDEYKEAKASINPVTGRVEEKPPNPMEGMTEEQKEHEAMKLVNMFDKLSRH
modifications: left off: His6, N-terminal, state not stated
Gαi; Gαi 1 µM, GDP 1 µM, Ric8A construct 1 µM, GTPγS 10 µM, 20 mM Tris-HCl pH 8.0, 150 mM NaCl, 5% glycerol, 1 mM TCEP, 10 mM MgCl2, tryptophan fluorescence ex 295 nm, em 340 nm, one phase association fit, mean
  Rate of GDP/GTPγS exchange reaction on Gαi, mean: 0.3229
Gαi; replicate 1
  Rate of GDP/GTPγS exchange reaction on Gαi: 0.2658
Gαi; replicate 2
  Rate of GDP/GTPγS exchange reaction on Gαi: 0.38
Gαt [1]; experiment 1, read-out: KD (nM), Gαt
  Kd: 22.6 nM
Gαt [1]; experiment 2, read-out: KD (nM), Gαt
  Kd: 27 nM
Gαt [1]; experiment 3, read-out: KD (nM), Gαt
  Kd: 23.1 nM
Gαt [1]; mean of replicates, read-out: mean KD, Gαt
  Kd: 24.2 nM
Gαt333–350; experiment 1, read-out: KD (uM), Gαt333-350
  Kd: 0.27 µM
Gαt333–350; experiment 2, read-out: KD (uM), Gαt333-350
  Kd: 0.33 µM
Gαt333–350; experiment 3, read-out: KD (uM), Gαt333-350
  Kd: 0.33 µM
Gαt333–350; experiment 4, read-out: KD (uM), Gαt333-350
  Kd: 0.19 µM
Gαt333–350; mean of replicates, read-out: Mean KD, Gαt333-350
  Kd: 0.28 µM
Gαt333–350; representative experiment, read-out: KD, steady-state curve of Figure 1c
  Kd: 0.27 µM
[2]; Sypro Orange, protein alone 0.5 mg/ml, 20 mM Tris-HCl pH 7.5, 150 mM KCl, 5% glycerol, 1 mM TCEP, 1 °C/minute, mean ± SD (n = 3)
  Tm: 46.8 ± 0.2 °C
[2]
  mean Tm: 46.8 C
[2]; replicate 1
  Tm (C ): 46.9 C
[2]; replicate 2
  Tm (C ): 46.96 C
[2]; replicate 3
  Tm (C ): 46.7 C

B2: R75M: R75M mutant of Ric8A1–492 (protein, UniProt Q5E9J8 1-492, looked up, variant R75M)
chain: B1 chain with R75M
modifications: residues 1-492
Gαt [3]
  interaction with full-length Gαt (in words): disruption of the interaction
Gαt333–350; BLI
  binding to Gαt333–350 (in words): ablated the binding
[2]
  mean Tm: 45.9 C
[2]; replicate 1
  Tm (C ): 45.86 C
[2]; replicate 2
  Tm (C ): 45.81 C
[2]; replicate 3
  Tm (C ): 45.88 C
[2]; replicate 4
  Tm (C ): 45.96 C
